Measurements published in the NTF2 design screens of Basanta et al. (2020).

Experiment: protease stability score; higher = more stable; yeast display proteolysis, trypsin and chymotrypsin;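 also: relative to predicted unfolded state with 0 unfolded-like and 1 meaning tenfold more protease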

Sequence	protease stability score
SEDHEVLRVALELMLHFLTTGDWHLLRKLMDPEVRIRVGEKHIHGMDLILSEWVRVIRELGVKHYHIEVKRDHHQGDKIHLDGTLHIDVNGRQIHIRTEIIAHKVDGKWIHESQVIN	0.988
DEEERHVRELLREWIESLFTGDEHRLMELADPHARSHIDGVDLHGRENMHRMIHELRITDMRIRRISVRLVGDFVDVRVDGESDIYFNGQRLHTQIDIVIISSKIDGKWVIEEVHHNIE	0.763
DERQHEARKVFLEWIRREVTGDFERVRHLADPNMRMDINGVEHHGRDRMSELIFRQLEEMRIEIHIRHYHVIGEKVHANIEMRVRQGDWDETRTIEIIFVVIDGRLHDYTVHIL	0.643
SEIERESKIFSKIEKHVWETGDEKILSEMADPHARIEIGDKEHHGREEFEKVAHEIVEFFPNMRFRVEHMDVQGNKVDLDTRLHFENHSHRYQVISLKFNGRWLIKSVKIE	1.08
SEDDETSSKAMHRILEIFETGDWKKLAKLADPNVRLRIDGQDVHGRELFTKIFRTELERFGHEQFEVHKSHEDVQGDKLELHTLVIYGDKRERIEIHSVKFNGVWLISTMRIDRH	0.935
SEEHRDVAKVIHDWFHDTITGDFKTLERLMDPNARLRINGQEFHGREEVRKFLERLLRHWREHSVEIEDINVQGDKASVHSHIDGEIDGRRIRMRSIFIILKFDGQWLMHSVIVE	2.68
SELDKVAEEHMEHFFHLYRTGDEDMTHELLDPHVRVSINGVETVGRELATKEVIDWVRKVKNVKTHIHHIEKINGKVIVDTRIHINGVDFRLVIWADKVNGRWHIREMEIR	1.36
NEWKEKFERFTRLLLTALMTGNEELLTKMVDPHVKVDIIINGQHIEHHGMERVIEMLTQLRVDRWRIKHIDIQGDKLHVNIHLDIKYDGRREETRTEIRLIIYDGVVHEIEIHLH	1.99
SEHHEVTEKLTRIILHQWDTGNERSLRKMMDPNARVEIEIGDKSWEYHGRENFRHAVERFDYLDNKEHKDERIVGDFSIIDGRVDGVQGDKRYDTNVEIIIIIVNGRIRAIRFIVR	1.26
DEDEELSERATREFIENWKTGNFDDLMKLLDPNVKLDVGDKRHHGRERMVRSMVEILKHLGANVIDIHDTDVYDGRIDIHLRLEAENHHSILTIHIEKINGRWLIRSMEIK	1.26
SEHEDMFREMAELLLESLVTGDFRQLKRLADPHMRLKINGKDTHGREEFSRVFKELDDELGVDHIEIKHLRVQGDKIHIHGKMHFDGRWHERHVDVEIFNGVVRHHRVEIR	1.3
DEEEETMRNIIMDWFRAMFTGDEERVNELLDPNARIEVGDKEWHGRDEFRKVLEHIRIHTRQIRIRRIDFFENRVHMDVQLDRELRFDGKTERIDVKLELFLVKIDGRWRFKETSVH	2.57
DEDFRDAKHMWELYLELIHTGDEERLRKLMDPNVRVEVGDKELHGRHHYIKWVREMRMRIEDVRIRTVRNINGVVHIHGELRGEYVYGDKRVHFETEVELVLLKVNGRWKIHEEHIH	1.75
SDEYRRNHDLARDYVELFRTGNEEHLYELADPNTMLHIGEFQSHGREHVYEWLEKIHRHWGWENVEFRLESMQVQGDYATIHGLHKFNGRFIRMDHIIVVINGRMESIRVEIR	0.397
DEDEKEIAKTVKELVHSLRTGDWEKITRMADPHVKIHVNGRELHGWEEMRRFEEEEFKRLGFKHRDVELKDFRYQGNFAHVHGNLVVEFNGVEEEIDQHIIILKVNGRWLITEIRHH	1.31
DRERLADELRRRLEKVMTTGDPTELDKLMDPNARILYGDQKFHGREHVKEFAKTLNDQYDHVTIRLVSYDIKNGEIHIVVDVVFRHNGQTRTKRINFVARVHGDKVKIESINIP	1.48
DERSEEVRRLIKNLVDFFHTGDWRLIQDLADPNVRTDVNGVEHHGREEVTKMLEELVRRFRNVRLHIRDHHIQGEWVIVILEFHVGDKSFELHMFALKINGRWTLTSIEVR	2.37
SEEEEESRHAIEMTLKTLITGDEHMIQDLADPRAQTHYGDKEYHGREELFRLMHEFILKIKNLRIELHDHHIQGDKIILDVRWRFDGKSFHVTIESRKINGRWLHHIFIVK	0.582
DRDDEMTERALKEHIKNFRTGDFDKLLELADPNVRVDIDGREIHGRENFVKLVLKLMDDLGMKPEDVWVEHVNVFNGKVHMRIVLVTFYGDKRHINDTNVIATKFDGRWILKDVTMV	1.08
DEDTELDETISREIIHAEKTGNEDWLTKLIDPNPRIEINGRIFHGMDFWLKFLKDMGVDHIDVKRDRAYNGVLDMDGYIIVNGREIRTHIHIVIVDGKATHIRIEIR	1.61
SEIDHILKLLAELWIRLWLTGDEEIIEELADPNVRLDINGKDAHGWERLSEVLRLEIKEMRIDHHRLREIRVQGNKSEVDGRLRGTFNGKHREVDVHIEIEVVNGRFKRIRIEFR	1.42
DEEKRDAREFLHLLFHAMITGDEDLVRHLADPHVKLDVNGRELHGWELFLTWFKRLLEEIRLTDIDVHHIELQGNKIILDTRLHVRVGDKEVDIHTEFHVVKVNGKWRLKTMRTE	2.61
DEDERLAEEFFEKFTRDIYTGDWRALRELLDPNVRLHINGRNHHGREELLYFEIEIYRRADHVEHRLREVTLFDGRVHVDVEIILHQGDKLIVLHVILFMEKVDGRWILRRKEVR	1.5
TEEERDVEKFIRDTLHYLHTGDEDAVAELMDPNVKFIIGDKHLHGMEALEYWSERFDHFHVRRLEIHHFEIINGRVHIELRIWVEVRYNGRIFELEFRSEYIMYKIDGKWVIKHVRHT	1.56
DTEEKLARDIVRIVSELIFTGNEQDLKRLHDPRVRLEVLFENHYLEFHGWEDYLEWLEEWRNHMRMKEIHVHTLQVYGNKARDEVHTVVHIGDKRIETRMHFIVVVINGRIKYISVHIE	1.9

Sequence	protease stability score
DEMKEEQRKFSELAIHNFETGDEDTFHRLADPHTKVEINGVLHIGRETVTTFFSHYWELFGVDHFEEKDRKIEIQGEKVITRIRGIIHFNGRQTDVLIRLEIRKINGRWILHSFTIEHI	0.579
TEQEHDMERLIEILIHSWRTGNEDELRRQIDPNARIDIGDKHFHGREFAIKHLSELRIKDFKLQHLDVQGDKVNVEGHLEGEINGRDDRYRYWIFVSKVNGQWFVERFHIV	1.5
SEDEEELNRVLKELLHAMVTGNEELWSRLVDPNYRVTVGDFRLHGMEEYSRILHEWRVEIREFRITSRTTVDGRIFIDAHFTEEIKQGDKVTFVNTRIRLIMIKVDGRWHVESREIR	0.484
SEAERDAKELLELIVTTMRTGDEETLNRLMDPHTRLHVNGRDLIGRELMTEFLHEIRIEDSRTRDVRVFNGRLEVEGKLRGDWNGVEREVETRYIVEKVNGRWLLHSVTFE	0.413
DEEDRDAEFFMRLWMRLHKTGDEDQLRELLDPDVRVRFENREFHGREELIKFIHRHRREARTDVKIRDFRVQGDKVIVHGELILQFDGVRFNHDLILITRKIDGRWRIEEIEVR	1.84
DEEEHEWRKVIHELLHAFMTGDWKRFLKLVDPHAKFLVDGQEMHGREVLKHYIDRIKNMRIEIRDETYDMVDGRMHSIFQLELTQGEYRHESYIEVIIKKFDGRWRVHEVDFEIR	2.18
SEEEHHARYMTQLFLHALETGDWHELRRMADPNMRLRVRVGDKHWHYHGWEHLHELLESFLKRVDHVEFIERSIHVQGEKSRFRGDVREHVGDKEHTHHIILILDIVNGKIHRIIIINE	1.37
THEEELSREATRFMLHVLMTGDPTLTEEQADPRTRVVVGDKELHGMEHLSKWYEDHWRQYPNVRIEFKRTEVQGDKMFLDGRLKVNGRETHVFILAFKINGQWVLEEIRFK	1.59
SEDEEMTKKMVEELNHNLLTGDEERLKKQADPNAKVHQGEYNLVGMDQFVRLIKEWRIHHVDMRDIRIFDGVAFIDFEEDIEIDGVRIQTRTHIIILKVNGRWRFKQWEMR	0.862
SEEDHFMKHLVDHWAKIEQTGDEHALHELLDPDARVSIKIGDKEHIVHGREYLIELWRQLGFKVIKIHDHTVFNGVVKLHGHWHFDGREVHVEQDLIIINGRVKTVLMRVK	1.72
SEDEKIMEEASRLFMHLFLTGDEETLMRLADPNTRIVFNGQDHHGREEWTKVLRDLGIKHSHIEHVNLRTQGDKVDLNVHVNVHIDGRTRRYLIIVHATKINGRWEIKEIQVHEH	0.989
DEERKFWHELAELLFHIHLTGDEDMLRHLLDPHVRSDINGVELHGREQAAEHFHKLMKTLGVKHIHHKRMHTIGDKTIIHGESEVDGRILHVHNHFWVVNGKVEEVKMHIE	0.495
DHLDERAERFFLKLVENLLTGNEEIWEELIDPNMRFHAENHSDHGWEVIRRWMERLIERFDHIEIRVHRLRFQGDKVHSDVRVHYEQGDKREEINMHIIIIIINGRIHTIRLIIL	0.308
SEEEHISERAMELLSESIRTGNEHLISKLADPHTRMLYGDKELHGRSRWSEWASRVKNMRFETHEVRVVGDKIRSDVRSNFDGRLHIEHLYILKIDGRWVLDKIEIE	0.246
TERDEHIEEMTDEWIELLFTGDEESLKRLADPDMRVNFNGVEIHGMHNFMRWVLHVLEHWRIEVKIHHKEVQGDKIRVELKQNIHFNGRDIHRDNREHIFVVNGVNKHVILIYR	1.43
DEDDEDSEEASRRMVETHLTGDEDKQSKMMDPNVKFLFNGVEFHGWELLHKIWTEFGIKHHQLKSVEVRNINGQVRVHVDGVIDVNGVSLKSELNFVAEKVDGRWRVKRIEIHIR	1.58
HEEERHREEIMERLLTAIKTGDPKITRELIDPHTRIEIGDKNLHGMEIWLKYIHTLFEKFPNLTLRIEDSHAQGEKFIIVIRLRFDGREVNLVLYYTIVNGRIKTIEIEEK	1.43
DEDEEESRRFTEILLHKFWTGDEDWYRKMADPNDKSVVGDKLFHGRDEVDRAIHEFLRHLGVDHFELHRLEVDHYNGKAEVRSDMILRVNGQERRMILKVHNTKFNGRWTLESVRIESR	0.715
NEEEKRMVEEHEKFWNFVRTGDEDTVRDLIDPHARVIQGNKILHGWEEAVRWMKEIRIHDIRIHSSHEVDGRVTITGDMDFEFNGKRHILEVRIFLLKIDGRWIHTFIQID	1.33
SESEHLLHTAHELVLRLQETGDWDEIIELADPNVRMEIGDKEIHGREEFERWSREMRFEHVEIHDMRVQGNKADLDGRMRGHFNGRTIDTRVKIIFHKVDGRWLITSYHVK	1.18
DSDQSKREMDKFLEMVSTGDPDEVNRLLDKDAHAHVGDQTYHGREEISHMWKELREKIDHLEVHDYKVNGNKLEVDMHATINGQNVVFTVVAVLRNGHFESVEVQYRSEEEEEKVKR	0.776
SEELRILVELVSKFYDAMKTGDEKTLKELADPNMRIIVGDKVLHGMESLKTHLKRIDHIYVHHFDYKKVDVQGDKVHVRGHSNLVLEFENHREEVIIHENWIVTKYNGRWSLESLEIR	1.49
SEEEKNARDFLRLIFNHVHTGDFRHMSKLFDPHVRIQIGDKVFHGREEAERVWLEWRVEDIKIRHIDIQGDKLIVDTEVHGNFNGRNRNIETEIHVRKVDGKWILESMSVI	2.54
DEEEKEMKEIMHMLDHWLRTGDEETLNHYLDPNVRLIIFIDGRNLTSIGREESRELWRYVVEEWRIHDMHVTEVRSQGDKAESNTRLKGHVNGVERTLIQHIEVDVVDGRIKRIIIRVH	2.1
DDEKREMVEMLKIFIHNFLTGDWRTMEKLLDPDARFIINGQTFHGREWVRHSLHVFLHQFEHIHHIVIHDIDLQGDKVNIDGKLDGTVNGKRRLLDSHWHLRVVNGRVKEIEIHIH	2.12
